From the RNAGym collection of RNA variant scans (doi:10.1093/molbev/msab373)

B1: Azoarcus group I ribozyme (parent)
chain: GUGCCUUGCGCCGGGAAACCACGCAAGGGAUGGUGUCAAAUUCGGCGAAACCUAAGCGCCCGCCCGGGCGUAUGGCAACGCCGAGCCAAGCUUCGGCGCCUGCGCCGAUGAAGGUGUAGAGACUAGACGGCACCCACCUAAGGCAAACGCUAUGGUGAAGGCAUAGUCCAGGGAGUGGCGAAAGUCACACAAACCGG

Variants of: B1
Experiment: reverse-splicing fitness (ratio to wild type); higher = more active; in vitro selection; Mg2+ level not given
How it was run: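 An in vitro group I ribozyme library with randomized positions was T7-transcribed and gel-purified. In triplicate, 10 pmol RNA in EPPS pH 7.5 was reacted with 50 pmoles of a 30-nt RNA substrate for 1 h at 37 °C across several added MgCl2 levels (1–48 mM), then stopped with EDTA. Products were reverse transcribed from a substrate-complementary primer, PCR-amplified and sequenced (HiSeq 4000). Fitness is a variant's read proportion after selection over that before, normalised to wild type.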
For C82U A111U A120G A145U C150U C169A, the reverse-splicing fitness was 0.00897.
In the case of C82U A111U A120G A145C C150A C169A U176A, the reverse-splicing fitness is reported as 0.0108.
C82U A111U A120G A145C C150A C169A U176G gave a reverse-splicing fitness of 0.00517.
With C82U A111U A120G A145C C150A C169A U176C the reverse-splicing fitness was 0.0062.
Work on C82U A111U A120G A145C U176G yielded a reverse-splicing fitness of 0.00374.
C82U A111U A120G A145C U176C gave a reverse-splicing fitness of 0.00925.
With C82U A111U A120G A145C U176A the reverse-splicing fitness was 0.00965.
C82U A111U A120G A145C C150G C169A U176A showed a reverse-splicing fitness of 0.00764.
Variant C82U A111U A120G A145C C150G C169A U176C has a reverse-splicing fitness of 0.006.
C82U A111U A120G A145C C150G C169A U176G showed a reverse-splicing fitness of 0.00478.
With C82U A111U A120G A145U C150G C169A U176G the reverse-splicing fitness was 0.00439.
Work on C82U A111U A120G A145U C150G C169A U176C yielded a reverse-splicing fitness of 0.00812.
In the case of C82U A111U A120G A145U C150G C169A U176A, the reverse-splicing fitness is reported as 0.00889.
Variant C82U A111U A120C A145G C169G has a reverse-splicing fitness of 0.00779.
Work on C82U A111U A120C A145G C169U yielded a reverse-splicing fitness of 0.0112.
For C82U A111U A120C A145G C169A, the reverse-splicing fitness was 0.0083.
C82U A111U A120G A145C C150A U176G gave a reverse-splicing fitness of 0.00379.
C82U A111U A120G A145C C150A U176A showed a reverse-splicing fitness of 0.00746.
C82U A111U A120G A145C C150A U176C showed a reverse-splicing fitness of 0.00836.
In the case of C82U A111U A120C A145U C150U C169G U176A, the reverse-splicing fitness is reported as 0.011.
For C82U A111U A120C A145U C150U C169G U176C, the reverse-splicing fitness was 0.0115.
C82U A111U A120C A145U C150U C169G U176G gave a reverse-splicing fitness of 0.00554.
C82U A111U A120C C150A C169A U176A showed a reverse-splicing fitness of 0.0182.
Variant C82U A111U A120C C150A C169A U176G has a reverse-splicing fitness of 0.00592.
For C82U A111U A120C C150A C169A U176C, the reverse-splicing fitness was 0.0182.
In the case of C82U A111U A120C A145U C150G C169G U176A, the reverse-splicing fitness is reported as 0.00657.
In the case of C82U A111U A120C A145U C150G C169G U176G, the reverse-splicing fitness is reported as 0.0048.
Variant C82U A111U A120C A145U C150G C169G U176C has a reverse-splicing fitness of 0.0054.
C82U A111U A120G A145G C150U C169G U176G gave a reverse-splicing fitness of 0.00411.
C82U A111U A120G A145G C150U C169G U176C showed a reverse-splicing fitness of 0.016.
For C82U A111U A120G A145G C150U C169G U176A, the reverse-splicing fitness was 0.0129.
Work on C82U A111U A120C A145U C150U C169A U176C yielded a reverse-splicing fitness of 0.00781.
Work on C82U A111U A120C A145U C150U C169A U176A yielded a reverse-splicing fitness of 0.0119.
Work on C82U A111U A120C A145U C150U C169A U176G yielded a reverse-splicing fitness of 0.00505.
Work on C82U A111U A120G A145C C169G U176C yielded a reverse-splicing fitness of 0.0149.
For C82U A111U A120G A145C C169G U176G, the reverse-splicing fitness was 0.004.
In the case of C82U A111U A120G A145C C169G U176A, the reverse-splicing fitness is reported as 0.0262.
For C82U A111U A120G A145U C150U C169A U176A, the reverse-splicing fitness was 0.0127.
In the case of C82U A111U A120G A145G C150A C169G U176A, the reverse-splicing fitness is reported as 0.0152.
C82U A111U A120G A145G C150A C169G U176G gave a reverse-splicing fitness of 0.00481.
In the case of C82U A111U A120G A145G C150A C169G U176C, the reverse-splicing fitness is reported as 0.0253.
For C82U A111U A120C A145G C150U C169U U176A, the reverse-splicing fitness was 0.0159.
